Test results: article PMC9170159 (2022)

Molecular target: SARS-CoV-2 spike receptor-binding domain (RBD), Wuhan-Hu-1, His-tagged (SARS-CoV-2 (Wuhan-Hu-1), UniProt P0DTC2 319-541)
Assay: BLI

B1: NCI-CoV-1B5 VHH-hFc fusion protein (Fc fusion)
chain: DVQLVESGGGSVQAGGSLRLSCTGSRYTYSTYCMGWFRQAPGKEEEAVAIINSGGGEPYYGDSVKGRFTISQDRAKNTVYLQMDGLQPDDTAIYYCVAADSHNSRCYLGRSYVNYWGQGTQVTVSS
**Q.** For B1, which Kd is on record?
**A.** 0.1 nM
